Measurements: article PMC4353692

Molecular target: Manduca sexta V-ATPase subunit c (c ring) (Manduca sexta (endogenous in midgut))
Test: cryo-EM structure; M. sexta V-ATPase holoenzyme purified from tissue, in C12E10; 9.4 Å reconstruction (gold standard FSC 0.143); homology models of the subunits flexibly fitted by MDFF; side chains not resolved

stoichiometry N: 8
Substance: Manduca sexta V-ATPase subunit c (c ring) (natural protein)
